Square brackets hold non-standard residues; d marks the D form. Ends that are not written are not given here. pS = N[C@@H](COP(=O)(O)O)C(=O)O
Target: T1, 14-3-3 protein zeta (14-3-3ζ) (UniProt P63104 1-245)
T1 chain: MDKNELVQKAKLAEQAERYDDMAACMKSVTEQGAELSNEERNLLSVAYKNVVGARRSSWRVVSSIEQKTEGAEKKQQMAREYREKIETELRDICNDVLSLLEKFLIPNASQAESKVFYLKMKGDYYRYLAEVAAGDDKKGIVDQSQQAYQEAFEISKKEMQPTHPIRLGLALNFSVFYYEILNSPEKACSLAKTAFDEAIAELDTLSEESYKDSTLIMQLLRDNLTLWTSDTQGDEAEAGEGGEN
Experiment: FP

## VTSKCG[pS]LGNIHHK (also: fluorescein (FITC) label, position not given here) [Fluorescein-labelled mono-phospho-Tau pS324 peptide]
  Kd: > 100 µM

## SRTP[pS]LPTPPTREGGGSGGGSGGGVTSKCG[pS]LGNIHHK (also: fluorescein (FITC) label, position not given here) [Fluorescein (FITC)-labelled bi-phospho Tau peptide pS2 (Tau^210–222-GGGSGGGSGGG-Tau^318–331)]
  Kd: 0.945 µM

## SRTP[pS]LPTPPTRE (also: fluorescein (FITC) label, position not given here) [Fluorescein-labelled mono-phospho-Tau pS214 peptide]
  Kd: > 100 µM

Source: article PMC12313985 (2025)
